# According to paper PMC3394778, “Ubiquitylation of Terminal Deoxynucleotidyltransferase Inhibits Its Activity” (PLoS ONE, 2012):
# B1: GST-TdT (terminal deoxynucleotidyltransferase) (natural protein)
# chain: MDPLCTASSGPRKKRPRQVGASMASPPHDIKFQNLVLFILEKKMGTTRRNFLMELARRKGFRVENELSDSVTHIVAENNSGSEVLEWLQVQNIRASSQLELLDVSWLIESMGAGKPVEITGKHQLVVRTDYSATPNPGFQKTPPLAVKKISQYACQRKTTLNNYNHIFTDAFEILAENSEFKENEVSYVTFMRAASVLKSLPFTIISMKDTEGIPCLGDKVKCIIEEIIEDGESSEVKAVLNDERYQSFKLFTSVFGVGLKTSEKWFRMGFRSLSKIMSDKTLKFTKMQKAGFLYYEDLVSCVTRAEAEAVGVLVKEAVWAFLPDAFVTMTGGFRRGKKIGHDVDFLITSPGSAEDEEQLLPKVINLWEKKGLLLYYDLVESTFEKFKLPSRQVDTLDHFQKCFLILKLHHQRVDSSKSNQQEGKTWKAIRVDLVMCPYENRAFALLGWTGSRQFERDIRRYATHERKMMLDNHALYDKTKRVFLKAESEEEIFAHLGLDYIEPWERNA
# notes: Terminal deoxynucleotidyltransferase (TdT), bovine; cDNA isolated from a bovine thymus cDNA library; wild type; source: E. coli BL21(DE3)pLysS Rosetta2, purified (Glutathione Sepharose 4B)
# B2: Ubc13/MMS2 (His-UbcH13 with His-MMS2) (complex)
# chain 1: MAGLPRRIIKETQRLLAEPVPGIKAEPDESNARYFHVVIAGPQDSPFEGGTFKLELFLPEEYPMAAPKVRFMTKIYHPNVDKLGRICLDILKDKWSPALQIRTVLLSIQALLSAPNPDDPLANDVAEQWKTNEAQAIETARAWTRLYAMNNI
# chain 2: not shown
# notes: UbcH13 (Ubc13, E2), human; cDNA amplified from a human thymus cDNA library; MMS2, E2 variant that lacks the active cysteine, human; The two chains were expressed and purified separately; also called UbcH13-MMS2; source: E. coli BL21(DE3), each purified (Ni Sepharose 6 Fast Flow)
# B3: His-UbcH10 (enzyme, human, UniProt O00762 1-179, looked up)
# chain: MASQNRDPAATSVAAARKGAEPSGGAARGPVGKRLQQELMTLMMSGDKGISAFPESDNLFKWVGTIHGAAGTVYEDLRYKLSLEFPSGYPYNAPTVKFLTPCYHPNVDTQGNICLDILKEKWSALYDVRTILLSIQSLLGEPNIDSPLNTHAAELWKNPTAFKKYLQETYSKQVTSQEP
# notes: UbcH10 (E2), human; cDNA amplified from a human thymus cDNA library; source: E. coli BL21(DE3), purified (Ni Sepharose 6 Fast Flow)
# B4: GST-UbcH5a (enzyme)
# chain: not shown
# notes: UbcH5a (ubiquitin-conjugating enzyme E2), human; cDNA amplified from a human thymus cDNA library; also called GST-Ubc5a; source: E. coli BL21(DE3), purified (Glutathione Sepharose 4B)
# B5: His-UbcH6 (enzyme, human, UniProt P51965 1-193, looked up)
# chain: MSDDDSRASTSSSSSSSSNQQTEKETNTPKKKESKVSMSKNSKLLSTSAKRIQKELADITLDPPPNCSAGPKGDNIYEWRSTILGPPGSVYEGGVFFLDITFTPEYPFKPPKVTFRTRIYHCNINSQGVICLDILKDNWSPALTISKVLLSICSLLTDCNPADPLVGSIATQYMTNRAEHDRMARQWTKRYAT
# notes: UbcH6 (E2), human; cDNA amplified from a human thymus cDNA library; source: E. coli BL21(DE3), purified (Ni Sepharose 6 Fast Flow)
# B6: His-UbcH5a (wild type) (enzyme)
# chain: not shown
# notes: UbcH5a (ubiquitin-conjugating enzyme E2), human; cDNA amplified from a human thymus cDNA library; also called His-wtUbcH5a; wtUbcH5a; source: E. coli BL21(DE3), purified (Ni Sepharose 6 Fast Flow)
# Columns and labels:
# Details in all cases: both partners purified
# [1] = molecular target: T1, His-UbcH5b (human, UniProt P62837 1-147); assay: pull-down; GST-TdT coupled to Glutathione Sepharose 4B as bait, His-tagged proteins added for 1 h (coupling at 4°C); binding buffer A: 50 mM Tris-HCl pH 7.4, 150 mM NaCl, 2.5 mM MgCl2, 1% TritonX-100, 10% glycerol, 1 mM DTT; immunoblot with anti-His; Figure 2A with or without His-Ub
# T1 construct: UbcH5b (E2), human; cDNA amplified from a human thymus cDNA library; also called UbcH5 isoforms; source: E. coli BL21(DE3), purified (Ni Sepharose 6 Fast Flow)
# [2] = molecular target: B1; assay: as above
# [3] = molecular target: T2, His-TdT del 2 (150–509) (bovine, UniProt P06526 150-509); assay: pull-down; GST-UbcH5a coupled to Glutathione Sepharose 4B as bait, His-TdT deletion mutants as prey; binding buffer A: 50 mM Tris-HCl pH 7.4, 150 mM NaCl, 2.5 mM MgCl2, 1% TritonX-100, 10% glycerol, 1 mM DTT; immunoblot with anti-His
# T2 construct: also called C-terminal region of TdT; source: E. coli BL21(DE3)pLysS Rosetta2, purified (Ni Sepharose 6 Fast Flow)
Binder,binding result [2],also measured
B1,,binding result [1]: binds
B2,binds,
B3,binds,
B4,,binding result [3]: binds
B5,binds,
B6,binds,
